We go through one molecule from publication doi:10.1101/2020.12.15.422995.

This series concerns the target T1, Fur (PerR homolog), 17.4 kDa (Bacillus subtilis, UniProt P54574 1-149).
T1 sequence: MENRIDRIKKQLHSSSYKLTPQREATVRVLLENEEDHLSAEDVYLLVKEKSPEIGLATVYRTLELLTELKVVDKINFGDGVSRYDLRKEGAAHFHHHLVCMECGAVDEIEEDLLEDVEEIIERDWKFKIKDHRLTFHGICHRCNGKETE
Briefly: EMSA. A general note: In EMSA bound probe runs differently from free probe, usually more slowly.

B1: 54-bp degenerate sloR promoter (Deg_sloR_CC1) (dsDNA)
DNA 1: CCTGATAGGATGATGGATAATTAAGGCTTTTATCCACTTTTTACTGACATTTTG
DNA 2: CAAAATGTCAGTAAAAAGTGGATAAAAGCCTTAATTATCCATCATCCTATCAGG
Turning to B1, the binding signal is 63 % band shift at 60 nM Fur (relative to 400 nM).
